pIC50: −log10 of the molar value. No end group written: not given here.

The text below walks through data of patent US5955575A, “Antagonists of G-protein-coupled receptor” (Hopital Sainte-Justine, priority 1997, dated 1999).

What all share (type): cell-based
One experiment concerns the target T1, EP1 (Homo sapiens, UniProt P34995).
T1 construct: a related prostaglandin receptor expressed in these cells; endogenous in cells; host or cells: A549 lung carcinoma cells (ATCC CCL185)
T1 sequence (P34995 1-402): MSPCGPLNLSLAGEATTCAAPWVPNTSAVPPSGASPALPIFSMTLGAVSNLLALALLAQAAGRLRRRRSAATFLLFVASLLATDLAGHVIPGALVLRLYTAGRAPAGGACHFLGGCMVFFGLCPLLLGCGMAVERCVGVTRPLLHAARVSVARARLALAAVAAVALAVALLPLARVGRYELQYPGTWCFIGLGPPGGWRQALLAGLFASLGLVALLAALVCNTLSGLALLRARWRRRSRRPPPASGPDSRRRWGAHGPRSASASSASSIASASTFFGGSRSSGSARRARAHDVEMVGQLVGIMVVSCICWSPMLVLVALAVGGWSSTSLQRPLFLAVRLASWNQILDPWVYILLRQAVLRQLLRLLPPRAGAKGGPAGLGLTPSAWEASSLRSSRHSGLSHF
The experiment in a line: Phosphoinositide hydrolysis in A549 cells stably expressing the peptides, stimulated with PGE2 (specificity). The conditions noted are these: peptide stably expressed intracellularly in A549 cells; 1 μM PGE2 for 30 min; FIG. 1B. The method, then: (§1) A549 lung carcinoma cells (ATCC Accession No.: CCL185, American Type Culture Collection, Rockville, Md. 20852) were cultured in Dulbecco's modified Eagles medium (DMEM) with 10% fetal bovine serum (FBS) and antibiotics, penicillin (10 U/ml) and streptomycin (10 μg/ml) in a humidified atmosphere containing 5% CO2 at 37° C. The cells were trypsinized and plated in 6-well tissue culture dishes at 2×10^5 cells/well, a day before commencing the experiments.
(§2) The expression plasmids carrying the third (PCP-1) and the fourth (PCP-2) intracellular domains were introduced into A549 cells using Transfectamine lipid (GIBCO Life Technologies, Burlington, ON). Three (3) micrograms of DNA and 16 μg of lipid were mixed in 200 μl of water and incubated at room temperature for 45 min. Then, the lipid-DNA complexes were diluted with 0.8 ml of Opti-MEM™ (GIBCO Life Technologies, Burlington, ON). The cells were washed twice with Hank's Balanced Salt Solution and incubated with lipid-DNA complexes for 6 hours. An equal volume of DMEM with 20% FBS was added and the cells were kept in the incubator overnight. On the next day, the medium was replaced with DMEM containing 10% FBS and antibiotics and incubated for another 24 hours. […]

For experiment [1], the target named is T2, FP receptor (Homo sapiens, UniProt P43088).
T2 construct: endogenous in cells; host or cells: A549 lung carcinoma cells (ATCC CCL185)
Briefly: Phosphoinositide hydrolysis in A549 cells stably expressing the peptides, stimulated with PGF2α. The conditions noted are these: peptide stably expressed intracellularly in A549 cells; 1 μM PGF2α for 30 min; n=3; FIG. 1A. The method, then:
as §1, §2

The target of experiment [2] is T2, FP receptor. The experiment in a line: Phosphoinositide hydrolysis in permeabilized A549 cells loaded with synthetic peptides, stimulated with PGF2α. The settings on record: dose-response in permeabilized A549 cells stimulated with PGF2α; FIG. 2B; read-out: half maximal inhibitory concentration.

T2 sequence (P43088 whole entry): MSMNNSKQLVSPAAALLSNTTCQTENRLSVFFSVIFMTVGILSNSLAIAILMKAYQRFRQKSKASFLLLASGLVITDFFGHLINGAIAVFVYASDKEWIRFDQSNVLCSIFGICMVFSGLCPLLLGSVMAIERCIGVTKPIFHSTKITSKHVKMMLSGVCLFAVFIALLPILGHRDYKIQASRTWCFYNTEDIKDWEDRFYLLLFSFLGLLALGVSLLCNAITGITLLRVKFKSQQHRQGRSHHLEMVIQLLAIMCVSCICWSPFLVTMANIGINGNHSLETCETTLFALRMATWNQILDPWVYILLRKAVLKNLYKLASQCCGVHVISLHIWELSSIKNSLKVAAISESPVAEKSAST

On to “RKAVLKNLYKLASQCCGVHVISLHIWELSSIKNSLKVAAISESPVAEKSAST (RKAVLKNLYKLASQCCGVHVISLHIWELSSIKNSLKVAAISESPVAEKSAST) [PCP-2]”, for which the “inositol phosphate generation by EP1 receptor” value in the experiment with EP1 is “did not affect”. The “ligand-stimulated phosphoinositide hydrolysis (fold stimulation over unstimulated controls)” value in the experiment with FP receptor [1] is listed as “inhibited”.

For the substance “RVKFKSQQHR QGRSHHLEM (RVKFKSQQHRQGRSHHLEM) [PCP-1]”, in the experiment with EP1, the “inositol phosphate generation by EP1 receptor” value was “did not affect”. Also, the “ligand-stimulated phosphoinositide hydrolysis (fold stimulation over unstimulated controls)” value with FP receptor [1] was “inhibited”.

Regarding “KDTILQLNLKEYNLV-NH2 [PCP-4, KDTILQLNLK EYNLV-NH2]”, the pIC50 on FP receptor [2] was 4.30.
